In one test the target is F11R (human) (UniProt Q9Y624). Put plainly: flow cytometry, HEK293T membrane protein array, 20 µg/mL and 5 µg/mL. Background: In flow cytometry, cells or beads pass a laser one at a time.
For a further test, the target named is T1, CLEC2B (human, UniProt Q92478 1-149).
T1 construct: whole, on cells
T1 sequence (looked up): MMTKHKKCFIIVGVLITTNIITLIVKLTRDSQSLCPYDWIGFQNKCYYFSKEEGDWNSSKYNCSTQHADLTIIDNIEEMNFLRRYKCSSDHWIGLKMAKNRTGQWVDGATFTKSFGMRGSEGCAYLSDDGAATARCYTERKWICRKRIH
The description is as above. The source says: (§1) In the membrane protein array, genetic engineering methods are used to construct the full-length cDNA sequences of human membrane proteins into expression vectors, which are then transiently transfected into HEK293T cells and arranged into an array by using microfluidic technology or chip printing technology. It is a high-throughput screening technology for studying the interaction between test substances and membrane proteins.
(§2) A chimeric rabbit monoclonal antibody, C-CAR168 scFv-RabFc, was generated by linking the anti-CD20 scFv (e.g., derived from the Ofatumumab mAb) and the anti-BCMA scFv (e.g., derived from the BCMA-20 mAb) in frame with a rabbit IgG Fc region. The chimeric antibody was added at a concentration of 20 μg/mL to the HEK293T cell array transiently transfected with 5220 membrane proteins. […] The average fluorescence intensity of its binding to CD20 and BCMA in flow cytometry was about 60-fold and 110-fold of that of the negative control group, respectively (FIG. 8B). […] This is mainly due to the binding between FCGR1A and the rabbit-derived Fc of the recombinant protein; so there is no relevant risk in clinical applications.

The next test addresses T2, MC2R (human, UniProt Q01718 1-297).
T2 construct: whole, on cells
The test is described as above.
Excerpt: as §1, §2

The target in the next test is T3, MPZ (human, UniProt P25189 30-248).
T3 construct: whole, on cells
T3 sequence (looked up): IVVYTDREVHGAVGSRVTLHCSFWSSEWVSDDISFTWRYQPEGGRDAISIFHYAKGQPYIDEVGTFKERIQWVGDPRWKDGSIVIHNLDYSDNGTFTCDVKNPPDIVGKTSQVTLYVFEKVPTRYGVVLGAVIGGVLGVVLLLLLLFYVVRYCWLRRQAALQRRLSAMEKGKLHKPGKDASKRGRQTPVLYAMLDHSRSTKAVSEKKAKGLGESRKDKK
Described as above.
Excerpt: as §1, §2

For a further test, the target named is T4, human CD20 (human, UniProt P11836 1-297).
T4 construct: whole, on cells; also called B1; MS4A
T4 sequence (looked up): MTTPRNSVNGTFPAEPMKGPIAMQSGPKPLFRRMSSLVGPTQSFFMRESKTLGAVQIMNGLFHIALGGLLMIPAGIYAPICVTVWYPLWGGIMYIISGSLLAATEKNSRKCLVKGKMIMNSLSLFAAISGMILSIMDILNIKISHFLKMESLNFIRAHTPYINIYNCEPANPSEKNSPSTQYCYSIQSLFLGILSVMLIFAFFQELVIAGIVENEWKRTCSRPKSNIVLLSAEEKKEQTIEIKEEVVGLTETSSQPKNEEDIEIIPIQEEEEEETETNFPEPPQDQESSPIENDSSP
The test can be described thus: flow cytometry, HEK293T membrane protein array.
Excerpt: as §1, §2

Another test deals with T5, human BCMA (human, UniProt Q02223 1-184).
T5 construct: whole, on cells; also called B-cell maturation antigen; TNFRSF17
T5 sequence (looked up): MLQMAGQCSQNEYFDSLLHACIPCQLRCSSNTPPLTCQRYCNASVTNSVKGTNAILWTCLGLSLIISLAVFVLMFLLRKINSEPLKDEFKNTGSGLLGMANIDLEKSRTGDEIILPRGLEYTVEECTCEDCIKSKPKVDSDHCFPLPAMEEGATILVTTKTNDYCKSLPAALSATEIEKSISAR
The test can be described thus: flow cytometry, HEK293T membrane protein array.
Excerpt: as §1, §2

Another test has as its target FCGR1A (human) (UniProt P12314). The test can be described thus: flow cytometry, HEK293T membrane protein array.

Chain of F11R (human) (Q9Y624 28-299, stated change not applied): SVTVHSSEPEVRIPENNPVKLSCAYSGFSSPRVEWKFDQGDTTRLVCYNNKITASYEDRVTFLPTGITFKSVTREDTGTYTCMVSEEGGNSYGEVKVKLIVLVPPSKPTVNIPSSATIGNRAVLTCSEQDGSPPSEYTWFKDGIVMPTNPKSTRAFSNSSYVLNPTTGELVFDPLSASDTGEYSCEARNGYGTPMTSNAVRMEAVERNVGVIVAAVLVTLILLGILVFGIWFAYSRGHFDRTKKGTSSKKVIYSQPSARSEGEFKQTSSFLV
Chain of FCGR1A (human) (P12314 16-374): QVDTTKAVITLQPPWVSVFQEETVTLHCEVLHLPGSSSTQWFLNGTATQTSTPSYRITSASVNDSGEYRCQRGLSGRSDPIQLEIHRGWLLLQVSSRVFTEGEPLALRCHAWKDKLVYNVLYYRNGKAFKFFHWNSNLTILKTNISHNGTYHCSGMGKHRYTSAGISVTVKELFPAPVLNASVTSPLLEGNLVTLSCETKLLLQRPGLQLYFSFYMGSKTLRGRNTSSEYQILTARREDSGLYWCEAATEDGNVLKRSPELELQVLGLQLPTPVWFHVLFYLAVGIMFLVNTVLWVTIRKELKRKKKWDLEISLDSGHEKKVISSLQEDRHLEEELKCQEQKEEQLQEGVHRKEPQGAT
T2 sequence (Q01718 whole entry): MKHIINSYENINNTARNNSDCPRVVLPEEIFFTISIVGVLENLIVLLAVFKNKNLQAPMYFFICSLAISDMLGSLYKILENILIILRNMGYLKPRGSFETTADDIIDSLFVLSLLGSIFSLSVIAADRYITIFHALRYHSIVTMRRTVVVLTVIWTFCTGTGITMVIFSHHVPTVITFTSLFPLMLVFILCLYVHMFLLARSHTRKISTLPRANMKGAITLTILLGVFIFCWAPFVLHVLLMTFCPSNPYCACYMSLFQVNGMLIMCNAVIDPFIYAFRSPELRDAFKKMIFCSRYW

B1: C-CAR168 scFv-RabFc (Fc fusion)
chain: EIVLTQSPATLSLSPGERATLSCRASQSVSSYLAWYQQKPGQAPRLLIYDASNRATGIPARFSGSGSGTDFTLTISSLEPEDFAVYYCQQRSNWPITFGQGTRLEIKGSTSGGGSGGGSGGGGSSEVQLVESGGGLVQPGRSLRLSCAASGFTFNDYAMHWVRQAPGKGLEWVSTISWNSGSIGYADSVKGRFTISRDNAKKSLYLQMNSLRAEDTALYYCAKDIQYGNYYYGMDVWGQGTTVTVSSGGGGSDIQMTQSPSSLSASVGDRVTITCRASQGISNYLNWYQQKPGKAPKPLIYYTSNLQSGVPSRFSGSGSGTDYTLTISSLQPEDFATYYCMGQTISSYTFGQGTKLEIKGGGGSGGGGSGGGGSEVQLVESGGGLVQPGGSLRLSCAASGFTFSNFDMAWVRQAPGKGLVWVSSITTGADHAIYADSVKGRFTISRDNAKNTLYLQMNSLRAEDTAVYYCVRHGYYDGYHLFDYWGQGTLVTVSS
notes: also called chimeric rabbit monoclonal antibody; not shown: rabbit IgG Fc region
On to B1, for which the average fluorescence intensity, fold of the negative control group with F11R (human) is less than 2 fold; in the test with CLEC2B, not above 2 fold; in the test with MC2R it was not above 2 fold; in the test with MPZ it was not above 2 fold; with human CD20, approximately 60 fold; with human BCMA it was approximately 110 fold. The average fluorescence intensity, fold of the negative control group with FCGR1A (human) was 2.5 fold.

Values taken from patent publication US20260108556A1 (ABELZETA, published 2026).
